One may read the EC50 as the midpoint of the concentration-response curve. In general, EC50 (read off the curve) refers to the midpoint of the concentration-response curve. Low readings indicate a more potent agent, high ones a less potent agent.

Results on six molecules are retold here after patent US20230416382A1 (Five Prime, published 2023).

Substitutions are numbered along the chain they refer to. “And” between values parts separate entries of the source, which are not always exact repeats. Equal entries are not always repeated.

Experiment [1] addresses T1, human CCR8 (human, UniProt P51685 1-355). Nature of the experiment: cell-based or functional assay.
In experiment [2] the target is T1, human CCR8. Kind of experiment: flow cytometry on HEK293 cells expressing human CCR8, anti-hIgG BV421 secondary. As for the experimental part: (§1) To determine the binding potency of anti-CCR8 antibodies, a flow based binding study was performed. HEK293 were transfected using expression vectors containing human CCR8 (hCCR8), cynomolgus CCR8 (cyCCR8) or murine CCR8 (mCCR8). Anti-CCR8 antibodies were tittered in the presence of hCCR8_293 (FIG. 8A), cyCCR8_293 cells (FIG. 8B) or mCCR8_293 cells (FIG. 8C). The cells were subsequently stained with an anti-hIgG secondary antibody conjugated to Brilliant Violet 421 (Biolegend) to visualize bound anti-CCR8 antibodies. The geometric mean fluorescence intensity of each sample was used to determine the binding EC50 of each antibody with Prism v.8 (Table 4; Graphpad).

The target of experiment [3] is T2, human CX3CR1 (human, UniProt P49238 1-355).
T2 construct: whole, on cells; also called hCX3CR1; huCX3CR1
T2 sequence (looked up): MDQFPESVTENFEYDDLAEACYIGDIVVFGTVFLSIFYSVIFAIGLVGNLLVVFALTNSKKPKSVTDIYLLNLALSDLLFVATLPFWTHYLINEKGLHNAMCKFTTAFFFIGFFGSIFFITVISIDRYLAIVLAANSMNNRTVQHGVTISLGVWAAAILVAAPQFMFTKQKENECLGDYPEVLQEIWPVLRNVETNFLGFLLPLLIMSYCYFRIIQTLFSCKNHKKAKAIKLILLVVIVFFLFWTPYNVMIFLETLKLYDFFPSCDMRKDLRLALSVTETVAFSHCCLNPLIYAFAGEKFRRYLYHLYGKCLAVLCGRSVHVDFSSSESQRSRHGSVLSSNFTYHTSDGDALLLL
Nature of the experiment: flow cytometry at 10 ug/ml on dye-barcoded mixed 293 lines, anti-hIgG BV421 secondary. The text has this:
(§2) To assess antibody binding selectivity, the cell lines were first labelled with unique combinations of fluorescent dyes to permit antibody staining of all cell lines in a single tube. hCCR8_293 cells were labeled with Cell Trace Far Red (Invitrogen). hCCR4_293 cells were labeled with carboxyfluorescein succinimidyl ester (Invitrogen). hCX3CR1_293 cells were labeled with both Cell Trace Far Red and carboxyfluorescein succinimidyl ester. Parental 293 cells were not labeled with dye. Anti-CCR8 antibodies were prepared at a concentration of 10 ug/ml and incubated with labeled hCCR8_293, hCCR4_293, hCX3CR1_293 or parental 293 cells that were pre-mixed at an equivalent ratio. The cells were washed and then subsequently stained with an anti-hIgG secondary antibody conjugated to Brilliant Violet 421 (Biolegend) to visualize bound antibodies. To determine the selectivity of binding, the individual cell lines were first identified in each sample and the geometric median fluorescence intensity of the secondary antibody was obtained for each population (FIG. 9B). […]

Experiment [4] concerns the target T3, human CCR4 (human, UniProt P51679 1-360).
T3 construct: whole, on cells; also called hCCR4; huCCR4
T3 sequence (looked up): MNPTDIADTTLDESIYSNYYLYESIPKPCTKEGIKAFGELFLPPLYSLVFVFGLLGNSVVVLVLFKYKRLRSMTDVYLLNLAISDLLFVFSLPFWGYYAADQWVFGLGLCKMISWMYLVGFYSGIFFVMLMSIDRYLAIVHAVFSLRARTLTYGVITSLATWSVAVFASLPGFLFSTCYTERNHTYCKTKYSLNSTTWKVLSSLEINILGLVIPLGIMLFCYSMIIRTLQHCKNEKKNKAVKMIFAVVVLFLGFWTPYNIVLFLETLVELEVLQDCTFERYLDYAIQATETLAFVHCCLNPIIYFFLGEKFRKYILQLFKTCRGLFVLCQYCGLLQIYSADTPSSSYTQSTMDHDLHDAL
Described as above.
Excerpt: as §2

In experiment [5] the target is T4, cynomolgus CCR8 (Macaca fascicularis (cynomolgus), UniProt O97665 1-356 (rhesus entry)).
T4 construct: On transfected HEK293 cells (cyCCR8_293); also called cyCCR8; Cyno CCR8
T4 sequence (O97665 other isoform, or with tags, fused parts or gaps): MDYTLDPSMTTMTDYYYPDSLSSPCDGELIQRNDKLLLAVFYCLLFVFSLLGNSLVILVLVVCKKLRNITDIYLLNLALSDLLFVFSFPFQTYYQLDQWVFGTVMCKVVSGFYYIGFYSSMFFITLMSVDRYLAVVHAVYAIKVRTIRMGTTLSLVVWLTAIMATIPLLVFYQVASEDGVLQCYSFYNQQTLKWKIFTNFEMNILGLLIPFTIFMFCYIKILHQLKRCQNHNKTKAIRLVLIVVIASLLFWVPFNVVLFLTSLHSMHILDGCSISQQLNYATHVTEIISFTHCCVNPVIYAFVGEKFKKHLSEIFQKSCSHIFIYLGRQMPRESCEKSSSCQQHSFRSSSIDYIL
Nature of the experiment: flow cytometry on HEK293 cells expressing cynomolgus CCR8, anti-hIgG BV421 secondary. On the procedure: as §1

Experiment [6] addresses T5, mCCR8.
T5 construct: also called murine CCR8; mouse CCR8
T5 receptor: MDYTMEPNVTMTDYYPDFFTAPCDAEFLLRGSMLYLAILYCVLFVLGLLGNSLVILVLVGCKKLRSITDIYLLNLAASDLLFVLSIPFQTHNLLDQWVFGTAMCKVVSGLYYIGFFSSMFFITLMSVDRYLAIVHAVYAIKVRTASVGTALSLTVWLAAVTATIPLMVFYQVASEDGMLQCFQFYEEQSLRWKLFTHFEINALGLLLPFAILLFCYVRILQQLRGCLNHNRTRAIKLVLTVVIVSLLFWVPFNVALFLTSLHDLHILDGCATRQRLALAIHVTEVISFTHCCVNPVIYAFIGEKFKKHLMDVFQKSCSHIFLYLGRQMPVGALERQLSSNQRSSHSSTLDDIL
Nature of the experiment: flow cytometry titration on mCCR8_293 (HEK293) cells, anti-hIgG BV421 secondary. On the procedure: as §1
(Flow cytometry measures light scatter and fluorescence of single cells or particles in a stream.)

In experiment [7] the target is T1, human CCR8. Kind of experiment: cell-based or functional assay. This is another data set of the same source.
For experiment [8], the target named is T4, cynomolgus CCR8. Kind of experiment: flow cytometry titration on cyCCR8_293 (HEK293) cells, anti-hIgG BV421 secondary. On the procedure:
as §1

For experiment [9], the target named is T2, human CX3CR1. Kind of experiment: flow cytometry on mixed dye-labelled HEK293 transfectants, signal compared with parental 293.
Excerpt: as §2

The target in experiment [10] is T3, human CCR4. The experiment is described as above.
Excerpt: as §2

T1 sequence (P51685 whole entry): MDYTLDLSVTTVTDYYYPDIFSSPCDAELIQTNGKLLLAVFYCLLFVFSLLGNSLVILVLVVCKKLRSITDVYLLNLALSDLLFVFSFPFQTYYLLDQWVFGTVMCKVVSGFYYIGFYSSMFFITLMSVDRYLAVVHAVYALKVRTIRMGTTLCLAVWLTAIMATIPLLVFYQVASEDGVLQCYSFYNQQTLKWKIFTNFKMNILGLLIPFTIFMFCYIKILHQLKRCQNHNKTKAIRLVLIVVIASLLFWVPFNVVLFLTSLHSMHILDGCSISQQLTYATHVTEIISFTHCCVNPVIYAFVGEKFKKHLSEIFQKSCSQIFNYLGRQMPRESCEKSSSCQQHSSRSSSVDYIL

B1: I2676 (antibody, V domains shown)
VH: QVQLVESGGGVVQPGRSLRLSCAASGFTFSSYAMHWVRQAPGKGLEWVAVISYDGSNKYYADSVKGRFTISRDNSKNTLYLQMNSLRAEDTAVYYCARVRDRAFDIWGQGTMVTVSS
VL: QAVLTQPASLSASPGASASLTCTLRSGINVGTYRIYWYQQKPGSPPQYLLRYKSDSDKQQGSGVPSRFSGSKDASANAGILLISGLQSEDEADYYCMIWHSSARNWVFGGGTKLTVL
notes: also called anti-CCR8 antibody clone I2676
Take B1: the “FcR reporter activation EC50 (Hut78 target cells, Jurkat FcγRIIIa NFAT-luciferase)” value (from here on “FcR reporter activation EC50”) in [1] is 0.00592 µg/mL and 39.4 pM. The EC50 in experiment [2] was 0.18 µg/mL and 1.2 nM; in experiment [5] it was 0.3 µg/mL and 2 nM. Also, the results for the binding result in experiment [3], in experiment [4] and in experiment [6] were “no binding (tested: 10 ug/ml)”, “no binding (tested: 10 ug/ml)” and “no binding (tested: about 30 ug/ml (log 1.5))”, respectively. The “NK Killing EC50 (primary human NK cells, TALL1 target cells)” value (“NK Killing EC50” below) in experiment [7] is 0.000856 µg/mL and 6 pM.

B2: I3210 (antibody, V domains shown)
VH: B1 VH
VL: QAVLTQPASLSASPGASASLTCTLRSGINVGTYRIYWYQQKPGSPPQYLLRIIKSGSSDKQQGSGVPSRFSGSKDASANAGILLISGLQSEDEADYYCMIWHSSARNWVFGGGTKLTVLG
notes: also called anti-CCR8 antibody clone I3210
With B2, the “FcR reporter activation EC50” value in experiment [1] was 32.1 pM and 0.00482 µg/mL. In addition, the EC50 in [2] was 0.2 µg/mL and 1.3 nM. Also, in [7], the “NK Killing EC50” value was 0.00065 µg/mL and 4.5 pM.

B3: I3144 (antibody, V domains shown)
VH: B1 VH
VL: B1 VL
notes: also called anti-CCR8 antibody clone I3144
For B3, the “EC50 (read off the curve)” value in experiment [8] is around 1 µg/mL. Also, in experiment [1], the “FcR reporter activation EC50” value was 0.0091 µg/mL and 60.8 pM. The EC50 in [2] was 4.6 nM and 0.69 µg/mL. Besides, the binding result in experiment [3] and in experiment [4] was “no binding (tested: 10 ug/ml)” throughout.

B4: I2677 (antibody, V domains shown)
VH: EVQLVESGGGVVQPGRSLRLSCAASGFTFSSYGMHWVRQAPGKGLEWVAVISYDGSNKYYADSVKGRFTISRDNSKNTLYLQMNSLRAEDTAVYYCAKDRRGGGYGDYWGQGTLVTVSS
VL: B1 VL with K113Q
notes: also called anti-CCR8 antibody clone I2677
On to B4, for which, in [1], the “FcR reporter activation EC50” value is 0.116 µg/mL and 772 pM. In addition, the binding result in [9] and in [10] was “no binding (tested: 10 ug/ml)” throughout. The EC50 was 0.13 µg/mL and 0.9 nM in experiment [2]; 9.6 µg/mL and 64 nM in [5].

B5: I3213 (antibody, V domains shown)
VH: B1 VH
VL: QAVLTQPASLSASPGASASLTCTLRSGINLGTYRIYWYQQKPGSPPQYLLRYKSDSDKQQGSGVPSRFSGSKDASANAGILLISGLQSEDEADYYCMIWHSSARNWVFGGGTKLTVLG
notes: also called anti-CCR8 antibody clone I3213
B5: the “FcR reporter activation EC50” value in experiment [1] is 0.00455 µg/mL and 30.4 pM. Besides, the EC50 in experiment [2] was 0.16 µg/mL and 1.1 nM. Besides, the “NK Killing EC50” value in [7] was 0.000602 µg/mL and 4.2 pM.

B6: I3145 (antibody, V domains shown)
VH: EVQLVETGGGLIQPGGSLRLSCAASGFTVSSNYMSWVRQAPGKGLEWVSVIYSGGSTYYADSVKGRFTISRDNSKNTLYLQMNSLRAEDTAVYYCARGLGSADYWGQGTLVTVSS
VL: DVVMTQSPLSLPVTLGQPASISCRSSQSLLHSNGNTYLNWFQQRPGQSPRRLIYKVSIRDSGVPDRFSGSGSGTDFTLKISRVEAEDVGLYYCMQSTQWPITFGGGTKLEIK
notes: also called anti-CCR8 antibody clone I3145
Turning to B6, in [1], the “FcR reporter activation EC50” value was 0.569 µg/mL and 3790 pM. Moreover, the EC50 in experiment [2] is 2.43 µg/mL and 16.2 nM. The binding result in experiment [3] and in experiment [4] was “no binding (tested: 10 ug/ml)” in each case.
